In patent publication US20100093033 one finds Kd, activity (fold diversification vs GFP-LacI) and binding signal (fold enrichment) data, which are given here for two substances.

As usually defined, the Kd is the constant that tells how readily two partners part at equilibrium.

Data set [1] has as its target Lactose repressor LacI (Escherichia coli) (UniProt P03023). The note with it: CITED general LacO affinity, method not stated; printed as <10-12 M; cited from earlier work.
Data set [2] has as its target E47-LacI fusion (Escherichia coli LacI; E47 organism not stated) (UniProt P03023). Briefly: cell_activity. The note with it: sIgM loss; almost reversed by 100 uM IPTG.
For data set [3], the target named is HIRA-LacI fusion (Escherichia coli LacI; HIRA organism not stated) (UniProt P03023). Briefly: cell_activity. The note with it: sIgM loss; untethered HIRA 1.7-fold.
In data set [4] the target is LacI-HP1 fusion (Escherichia coli LacI; Drosophila melanogaster HP1a) (UniProt P03023). The experiment in a line: cell_activity. Particulars: sIgM loss; chromatin effects largely reversed by 250 uM IPTG.
Data set [5] has as its system E2A (Gallus gallus). The note with it: ChIP with anti-E2A vs IgG, normalized to ovalbumin.

Take “PolyLacO at Igλ (about 80-100 repeats of 20 bp lac operator, 3.8 kb)”: the Kd in data set [1] is less than 1 pM. Also, the activity (fold diversification vs GFP-LacI) worked out at 4.5 in data set [2], 11 in data set [3] and 5.6 in data set [4].
Take rearranged VλR allele, DT40: the binding signal (fold enrichment) in data set [5] turned out to be 17.6.
